Assay in all cases: EMSA; 25 mM Hepes pH 8.0, 40 mM KCl, 5 mM MgCl2, 1 mM DTT, 1 mM EDTA, 8% glycerol; 50 ng protein, 20 fmol probe; 30 min at 28 C; native PAGE
Background: Mobility shift assays separate free from complexed probe on a gel.

In one data set the target is T1, 6xHis-WRKY40 (Arabidopsis thaliana, UniProt Q9SAH7 1-302).
T1 sequence: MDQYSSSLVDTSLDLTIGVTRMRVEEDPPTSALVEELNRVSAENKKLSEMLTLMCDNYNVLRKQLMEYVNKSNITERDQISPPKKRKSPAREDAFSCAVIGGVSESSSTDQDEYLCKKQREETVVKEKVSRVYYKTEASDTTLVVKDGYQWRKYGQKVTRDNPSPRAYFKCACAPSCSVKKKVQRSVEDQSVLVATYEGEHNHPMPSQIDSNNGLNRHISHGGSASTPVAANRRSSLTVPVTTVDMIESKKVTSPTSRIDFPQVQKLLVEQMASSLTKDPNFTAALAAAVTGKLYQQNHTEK
As to conditions: protein: recombinant, tags: N-terminal Trx, HRV 3C site (pET48b), label: 5' biotin on each strand, blunt.

For a further data set, the target named is 6xHis-WRKY18 (Arabidopsis thaliana, UniProt Q9C5T4 1-310). As to conditions: protein: recombinant, tags: N-terminal Trx, HRV 3C site (pET48b), chain copies: 2, label: 5' biotin on each strand, blunt.
Sequence of 6xHis-WRKY18 (Q9C5T4 whole entry): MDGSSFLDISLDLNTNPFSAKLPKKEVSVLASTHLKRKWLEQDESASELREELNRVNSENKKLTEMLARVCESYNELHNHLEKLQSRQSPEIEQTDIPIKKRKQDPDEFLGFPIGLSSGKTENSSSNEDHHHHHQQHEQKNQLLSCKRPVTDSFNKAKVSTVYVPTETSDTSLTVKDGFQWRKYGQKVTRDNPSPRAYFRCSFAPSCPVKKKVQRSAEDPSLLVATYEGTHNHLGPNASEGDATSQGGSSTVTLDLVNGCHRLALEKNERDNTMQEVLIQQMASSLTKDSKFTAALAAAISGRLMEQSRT
The target of another data set is 6xHis-WRKY60 (Arabidopsis thaliana, UniProt Q9SK33 1-271). As to conditions: protein: recombinant, tags: N-terminal Trx, HRV 3C site (pET48b), label: 5' biotin on each strand, blunt.
Sequence of 6xHis-WRKY60 (Q9SK33 whole entry): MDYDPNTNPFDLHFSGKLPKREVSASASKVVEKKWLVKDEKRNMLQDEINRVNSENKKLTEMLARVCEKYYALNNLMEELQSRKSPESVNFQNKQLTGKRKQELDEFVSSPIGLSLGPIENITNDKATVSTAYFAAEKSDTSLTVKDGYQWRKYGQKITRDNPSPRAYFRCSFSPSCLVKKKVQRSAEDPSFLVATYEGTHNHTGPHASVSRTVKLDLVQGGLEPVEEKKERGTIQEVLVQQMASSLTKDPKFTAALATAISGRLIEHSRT

Substitutions are numbered along the chain they refer to.

B1: ProCRK5-1 (dsDNA)
DNA 1: TTGATGTTACTCGTCTAGTTGACCTTGACTTGCAAGATATTGTATTATTTTACAAAAACCAAAATTTGACTGGCTTGGCT
DNA 2: AGCCAAGCCAGTCAAATTTTGGTTTTTGTAAAATAATACAATATCTTGCAAGTCAAGGTCAACTAGACGAGTAACATCAA
Turning to B1, the binding result with 6xHis-WRKY40 is given as “binds”; with 6xHis-WRKY18, “binds”; with 6xHis-WRKY60 it was “no binding”.

B2: ProCRK5-1 mW1 (dsDNA)
DNA 1: B1 DNA 1 with G68A, C70A
DNA 2: B1 DNA 2 with G11T, C13T
Take B2: the binding result with 6xHis-WRKY40 and in the data set with 6xHis-WRKY18 was “binds” in each case.
